Measured values from patent publication EP2275116A1.

Target: human p21-activated kinase 1 (PAK1) (human) (UniProt Q13153)
Assay: cell-based or functional assay

UniProt Q13153, sequence (Q13153 whole entry R237L/F379S, form in doubt): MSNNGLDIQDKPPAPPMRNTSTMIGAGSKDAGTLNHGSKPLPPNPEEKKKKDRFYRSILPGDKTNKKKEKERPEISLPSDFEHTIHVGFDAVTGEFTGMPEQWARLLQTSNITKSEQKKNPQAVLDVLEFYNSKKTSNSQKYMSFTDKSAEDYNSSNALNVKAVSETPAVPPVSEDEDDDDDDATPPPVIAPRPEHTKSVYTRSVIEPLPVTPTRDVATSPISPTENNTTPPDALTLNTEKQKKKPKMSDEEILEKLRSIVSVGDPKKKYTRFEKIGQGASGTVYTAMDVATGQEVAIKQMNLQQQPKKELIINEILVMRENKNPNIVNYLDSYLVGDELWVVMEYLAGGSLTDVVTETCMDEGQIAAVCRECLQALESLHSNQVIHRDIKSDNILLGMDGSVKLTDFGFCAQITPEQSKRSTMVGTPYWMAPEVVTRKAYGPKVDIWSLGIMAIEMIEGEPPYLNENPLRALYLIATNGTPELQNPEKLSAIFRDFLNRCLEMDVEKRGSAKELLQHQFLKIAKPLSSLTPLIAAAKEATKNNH

- inhibition of IL-1β induced expression of PGE2 in SW1353 cells (ELISA of supernatant): > 50%
- inhibition of IL-1β-induced expression of MMP13 in SW1353 cells (ELISA of supernatant): 55%
- inhibition of basal MMP13 expression in non-stimulated SW1353 cells (ELISA of supernatant): > 80%
Substance: HA-tagged PAK1 inhibitory domain (PAK1 residues 83 to 149) (from UniProt P35465 83-149)
